Legend:
[1] = molecular target: T1, soluble human IL-6 receptor (hsIL-6R) (human, UniProt P08887 20-357); experiment: ECL sandwich: biotinylated Fv4-IgG1 on streptavidin plate captures hsIL-6R, detected with ruthenium-labelled PHX-F29
T1 construct: also called hIL-6R
T1 sequence: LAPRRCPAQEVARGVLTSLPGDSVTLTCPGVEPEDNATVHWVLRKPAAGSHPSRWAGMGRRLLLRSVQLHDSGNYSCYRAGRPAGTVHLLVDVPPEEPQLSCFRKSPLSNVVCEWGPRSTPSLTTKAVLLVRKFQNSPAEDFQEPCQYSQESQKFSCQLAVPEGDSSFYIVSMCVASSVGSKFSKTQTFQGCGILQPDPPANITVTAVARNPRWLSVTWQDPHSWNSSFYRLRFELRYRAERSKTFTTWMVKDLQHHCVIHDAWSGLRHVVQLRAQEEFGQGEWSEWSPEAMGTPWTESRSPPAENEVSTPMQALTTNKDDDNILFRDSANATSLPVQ
Protocol: Whether or not two types of antibodies can bind to a single antigen simultaneously was evaluated by an electrochemiluminescence method. […] After washing, 100 μL of the hsIL-6R solutions prepared at 0, 0.2, 1, 5, and 25 μg/mL was added, and they were allowed to react at room temperature for one hour. […] After washing, 150 μL of Read Buffer T (×4) (Meso Scale Discovery) was dispensed into each well, and this was immediately followed by chemiluminescence measurement using the SECTOR IMAGER 2400 Reader (Meso Scale Discovery).

[2] = molecular target: T2, soluble mouse FcRn (mFcRn), with mouse β2-microglobulin (mouse, UniProt Q61559 22-290; P01887 21-119); experiment: SPR (Biacore T100), mouse FcRn immobilised on a CM4 chip, Fv4-IgG1 50 µg/mL alone or with hsIL6R 12.5 µg/mL as analyte, pH 7.4, 25 °C; bound amount normalised to 100 [i]
T2 sequence: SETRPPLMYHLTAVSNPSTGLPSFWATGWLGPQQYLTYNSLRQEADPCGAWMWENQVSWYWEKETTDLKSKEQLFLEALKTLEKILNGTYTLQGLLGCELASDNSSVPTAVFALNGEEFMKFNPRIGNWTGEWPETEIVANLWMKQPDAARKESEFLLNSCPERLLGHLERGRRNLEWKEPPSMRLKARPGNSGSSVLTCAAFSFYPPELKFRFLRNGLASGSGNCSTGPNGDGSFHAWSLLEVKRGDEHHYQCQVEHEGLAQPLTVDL
T2 sequence (b2m): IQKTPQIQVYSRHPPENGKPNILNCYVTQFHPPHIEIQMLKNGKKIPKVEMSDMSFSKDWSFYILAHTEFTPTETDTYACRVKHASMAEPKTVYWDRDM
Protocol: (§1) Binding of an antigen-antibody immune complex with FcRn was assessed using Biacore T100 (GE Healthcare). […] Subsequently, a 20 mM Tris-HCl, 150 mM NaCl, pH 9.0 or pH 9.5 solution was injected to regenerate the sensor chip. A 50 mmol/L Na-Phosphate (phsophoric acid), 150 mmol/L NaCl, 0.05% Tween20, pH 7.4 buffer was used as the running buffer, and binding between the antigen-antibody immune complex and FcRn was measured at 25° C.

[3] = molecular target: T1, soluble human IL-6 receptor (hsIL-6R); experiment: SPR (Biacore T100), 25 C, pH 7.4; Fv4-F22 10 µg/mL with or without hsIL6R 2.5 µg/mL over immobilized hFcRn
Protocol: (§2) Binding of an antigen-antibody immune complex with human FcRn was assessed using Biacore T100 (GE Healthcare).
(§3) Subsequently, a 20 mM Tris-HCl, 150 mM NaCl, pH 9.0 or pH 9.5 solution was injected to regenerate the sensor chip. A 50 mmol/L Na-Phosphate (phosphoric acid), 150 mmol/L NaCl, 0.05% Tween20, pH 7.4 buffer was used as the running buffer, and binding between the antigen-antibody immune complex and FcRn was measured at 25° C.

[4] = molecular target: soluble human FcRn (hFcRn), complex with β2-microglobulin (human, UniProt P55899 24-290; P61769 21-119); experiment: SPR (Biacore T100), human FcRn immobilised on a CM4 chip, Fv4-F22 10 µg/mL alone or with hsIL6R 2.5 µg/mL as analyte, pH 7.4, 25 °C; bound amount normalised to 100 [i]
Protocol: as §2, §3

[5] = molecular target: T3, human IgE (variable region derived from an anti-human glypican3 antibody) (human); experiment: SPR (Biacore T200), 37 C; ratio of KD values
T3 construct: also called hIgE
Protocol: Running buffers used in the assay were:
A chemically-synthetized peptide having a human glypican 3 protein-derived sequence (SEQ ID NO: 47) whose C-terminal Lys is biotinylated (hereinafter abbreviated as “biotinylated GPC3 peptide”) was added in an appropriate amount and immobilized onto Sensor chip SA (GE Healthcare) based on the affinity between biotin and streptavidin. Human IgE was immobilized onto the chip by injecting it at an appropriate concentration so as to be trapped by the biotinylated GPC3 peptide. […] Then, 10 mmol/L glycine-HCl (pH 1.5) was injected to regenerate the sensor chip. The interaction was always measured at 37° C. The measurement result was analyzed by curve fitting using Biacore T200 Evaluation Software (GE Healthcare) to calculate the association rate constant ka (1/Ms) and dissociation rate constant kd (1/s). The dissociation constant KD (M) was calculated from the above-described constants.

[6] = molecular target: T2, soluble mouse FcRn (mFcRn), with mouse …; experiment: SPR (Biacore T100), mouse FcRn immobilised on a CM4 chip, clone 278-IgG1 50 µg/mL as analyte, pH 7.4, 25 °C; bound amount normalised to 100 [ii]
Protocol: as §1

[7] = molecular target: Human IgA (hIgA), H (WT)-IgA1 / L (WT) (human); experiment: >=
GC-hIgA-MYC = molecular target: T4, GC-hIgA-MYC (human); experiment: SPR (Biacore T200), 25 C, pH 7.4, 1.2 mM Ca; 200 nM antibody with or without 200 nM antigen over captured human FcγRIIIaV; immune complex shown by slower dissociation
T4 construct: also called hIgA-v2
T4 sequence (heavy, as listed by the source): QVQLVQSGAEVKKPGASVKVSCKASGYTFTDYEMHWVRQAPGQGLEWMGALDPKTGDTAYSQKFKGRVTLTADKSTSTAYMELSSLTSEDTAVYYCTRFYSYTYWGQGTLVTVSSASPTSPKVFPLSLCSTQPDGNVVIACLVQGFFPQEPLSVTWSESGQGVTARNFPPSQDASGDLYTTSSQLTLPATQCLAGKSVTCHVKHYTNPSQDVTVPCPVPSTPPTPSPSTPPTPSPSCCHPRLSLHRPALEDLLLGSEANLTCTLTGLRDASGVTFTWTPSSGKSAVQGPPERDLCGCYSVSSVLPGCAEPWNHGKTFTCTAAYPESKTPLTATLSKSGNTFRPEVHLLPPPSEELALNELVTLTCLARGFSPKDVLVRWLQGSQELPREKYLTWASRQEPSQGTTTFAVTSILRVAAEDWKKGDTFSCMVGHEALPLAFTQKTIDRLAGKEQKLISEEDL

T3 sequence (heavy, as listed by the source): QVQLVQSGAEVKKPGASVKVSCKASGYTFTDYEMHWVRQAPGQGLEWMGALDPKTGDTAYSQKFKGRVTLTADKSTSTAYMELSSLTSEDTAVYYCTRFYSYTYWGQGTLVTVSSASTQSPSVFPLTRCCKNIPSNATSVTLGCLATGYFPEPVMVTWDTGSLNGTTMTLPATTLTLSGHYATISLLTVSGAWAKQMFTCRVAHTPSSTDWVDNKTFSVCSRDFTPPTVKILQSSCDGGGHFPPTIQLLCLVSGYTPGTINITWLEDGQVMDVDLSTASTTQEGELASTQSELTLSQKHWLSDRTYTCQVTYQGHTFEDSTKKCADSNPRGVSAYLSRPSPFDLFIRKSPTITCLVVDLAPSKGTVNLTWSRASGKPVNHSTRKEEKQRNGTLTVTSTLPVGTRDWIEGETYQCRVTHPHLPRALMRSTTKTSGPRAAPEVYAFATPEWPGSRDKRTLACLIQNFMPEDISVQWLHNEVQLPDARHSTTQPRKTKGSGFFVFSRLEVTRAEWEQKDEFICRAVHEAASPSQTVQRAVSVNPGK
soluble human FcRn (hFcRn), complex with β2-microglobulin, sequence (P55899 24-290 limits assumed, chain 1 of 2): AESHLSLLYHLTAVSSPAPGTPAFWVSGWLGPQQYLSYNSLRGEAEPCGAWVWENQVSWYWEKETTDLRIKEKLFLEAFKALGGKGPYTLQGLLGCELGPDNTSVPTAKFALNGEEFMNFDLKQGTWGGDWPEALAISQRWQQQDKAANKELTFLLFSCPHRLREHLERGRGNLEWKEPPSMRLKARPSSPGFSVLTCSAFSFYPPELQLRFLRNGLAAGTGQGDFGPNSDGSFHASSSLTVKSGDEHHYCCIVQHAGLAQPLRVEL
soluble human FcRn (hFcRn), complex with β2-microglobulin, sequence (P61769 21-119 limits assumed, chain 2 of 2): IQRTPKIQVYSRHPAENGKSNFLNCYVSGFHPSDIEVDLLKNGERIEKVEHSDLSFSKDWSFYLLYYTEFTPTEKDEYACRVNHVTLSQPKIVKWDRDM
Human IgA (hIgA), H (WT)-IgA1 / L (WT) (human), sequence (VH, as listed by the source): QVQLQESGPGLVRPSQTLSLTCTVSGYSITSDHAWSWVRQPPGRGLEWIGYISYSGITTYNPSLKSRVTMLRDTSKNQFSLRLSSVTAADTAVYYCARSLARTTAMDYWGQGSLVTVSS

B1: Fv4-IgG1 (antibody)
heavy: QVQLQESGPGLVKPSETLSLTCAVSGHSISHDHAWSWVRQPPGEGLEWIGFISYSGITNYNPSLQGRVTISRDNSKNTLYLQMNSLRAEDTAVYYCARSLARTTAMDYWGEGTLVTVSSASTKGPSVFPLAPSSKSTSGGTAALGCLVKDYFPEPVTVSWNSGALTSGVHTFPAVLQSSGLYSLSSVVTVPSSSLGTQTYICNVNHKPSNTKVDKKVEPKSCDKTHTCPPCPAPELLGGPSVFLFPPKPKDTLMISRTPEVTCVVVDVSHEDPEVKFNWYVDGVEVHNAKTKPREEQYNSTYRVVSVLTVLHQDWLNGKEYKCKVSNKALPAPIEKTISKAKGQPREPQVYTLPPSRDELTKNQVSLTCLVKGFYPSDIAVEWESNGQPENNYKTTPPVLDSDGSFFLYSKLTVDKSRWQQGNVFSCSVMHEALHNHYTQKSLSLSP
light: DIQMTQSPSSLSASVGDSVTITCQASTDISSHLNWYQQKPGKAPELLIYYGSHLLSGVPSRFSGSGSGTDFTFTISSLEAEDAATYYCGQGNRLPYTFGQGTKVEIERTVAAPSVFIFPPSDEQLKSGTASVVCLLNNFYPREAKVQWKVDNALQSGNSQESVTEQDSKDSTYSLSSTLTLSKADYEKHKVYACEVTHQGLSSPVTKSFNRGEC
notes: pH-dependent anti-human IL-6 receptor antibody
B1: binds [1]; binds [2].

B2: Fv4-F22 (antibody, human IgG1, kappa)
heavy: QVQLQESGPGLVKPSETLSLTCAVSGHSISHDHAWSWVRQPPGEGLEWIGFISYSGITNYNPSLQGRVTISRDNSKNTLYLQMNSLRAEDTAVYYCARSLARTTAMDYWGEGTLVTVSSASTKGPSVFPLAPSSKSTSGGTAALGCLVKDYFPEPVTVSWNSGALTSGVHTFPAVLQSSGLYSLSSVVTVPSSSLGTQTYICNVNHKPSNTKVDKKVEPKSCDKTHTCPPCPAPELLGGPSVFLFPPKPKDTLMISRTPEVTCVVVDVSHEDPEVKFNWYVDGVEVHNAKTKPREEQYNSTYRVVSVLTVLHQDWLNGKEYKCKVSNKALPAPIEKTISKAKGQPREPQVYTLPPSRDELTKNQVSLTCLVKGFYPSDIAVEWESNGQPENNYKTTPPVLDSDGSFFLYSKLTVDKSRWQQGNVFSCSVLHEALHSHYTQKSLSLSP
light: DIQMTQSPSSLSASVGDSVTITCQASTDISSHLNWYQQKPGKAPELLIYYGSHLLSGVPSRFSGSGSGTDFTFTISSLEAEDAATYYCGQGNRLPYTFGQGTKVEIERTVAAPSVFIFPPSDEQLKSGTASVVCLLNNFYPREAKVQWKVDNALQSGNSQESVTEQDSKDSTYSLSSTLTLSKADYEKHKVYACEVTHQGLSSPVTKSFNRGEC
B2: binds [3]; binds [4].

B3: clone 278 (antibody, human IgG1, kappa)
heavy: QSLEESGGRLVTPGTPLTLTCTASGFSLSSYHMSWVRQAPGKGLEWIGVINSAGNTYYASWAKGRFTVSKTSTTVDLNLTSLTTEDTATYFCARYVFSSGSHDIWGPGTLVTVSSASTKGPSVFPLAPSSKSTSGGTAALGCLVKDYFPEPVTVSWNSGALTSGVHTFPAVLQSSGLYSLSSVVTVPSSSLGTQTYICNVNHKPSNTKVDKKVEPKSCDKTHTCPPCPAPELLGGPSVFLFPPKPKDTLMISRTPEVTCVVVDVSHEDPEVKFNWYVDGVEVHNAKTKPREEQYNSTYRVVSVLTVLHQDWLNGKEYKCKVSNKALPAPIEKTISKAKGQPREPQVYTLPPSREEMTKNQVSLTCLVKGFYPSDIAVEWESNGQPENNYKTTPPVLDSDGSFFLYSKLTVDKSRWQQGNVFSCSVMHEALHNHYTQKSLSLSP
light: AYDMTQTPASVEVAVGGTVTIKCQASQSIGSWLAWYQQKPGQPPKELIYGTSTLESGVPSRFIGSGSGTEFTLTISGVECADAATYYCQQGYSEDNIDNAFGGGTEVVVKRTVAAPSVFIFPPSDEQLKSGTASVVCLLNNFYPREAKVQWKVDNALQSGNSQESVTEQDSKDSTYSLSSTLTLSKADYEKHKVYACEVTHQGLSSPVTKSFNRGEC
notes: pH-dependent anti-human IgE antibody with a human IgG1 heavy chain constant region and a human light chain constant region
For B3, the “pH dependency, KD (pH 5.8, 1.2 mM Ca)/KD (pH 7.4, 1.2 mM Ca)” value [5] was 842 ratio, the “pH/Ca dependency, KD (pH 5.8, 3 µM Ca)/KD (pH 7.4, 1.2 mM Ca)” value [5] was 1640 ratio and the binding result [6] was “binds”.

B4: GA2-IgG1 (antibody, V domains shown)
VH: QVQLVQSGAEVKKPGSSVKVSCKASGGTFSSYAISWVRQAPGQGLEWMGGIIPIFGTANYAQKFQGRVTITADESTSTAYMELSSLRSEDTAVYYCARPRWETAISSDAFDIWGQGTMVTVSS
VL: DIQMTQSPSSLSASVGDRVTITCRASQSISDDLNWYQQKPGKAPKLLIYEASNLQSGVPSRFSGSGSGTDFTLTISSLQPEDFATYYCQQHSSSPLTFGQGTKVEIKR
notes: also called GA-IgG1
B4 was tested, and the “Ca-dependent binding activity (fold)” value [7] was 100 times and the binding result (GC-hIgA-MYC) was “binds”.

— US20190218309A1 (Chugai, published 2019)
